Reference: US6884866B2, “Bulk drying and the effects of inducing bubble nucleation” (Avant Immunotherapeutics, Inc., priority 2001, dated 2005)

Assay: Urokinase activity after foam drying and storage
Assay type: physicochemical
Experimental: (7) Freeze-dried samples of Urokinase were rehydrated with 2 ml of 40 wt % sucrose. The solutions were then transferred to 20 ml sterilized glass vials for future preservation by drying. Before drying, the vials were covered with gray slotted rubber stoppers. The vials were dried inside a vacuum chamber. The vials were sitting on the surface of a stainless steel shelf inside the chamber. The shelf temperature was controlled by circulating ethylene glycol/water antifreeze at a controlled temperature inside the shelf. Before the vacuum was applied the shelf temperature was decreased to 5° C. Then the hydrostatic pressure inside the chamber was decreased to 0.5 Torr. Under such conditions, the suspension boiled for 30 min. […] Visually, under these experimental conditions, stable dry foams were formed inside the vials within 3 hours. After an additional 12 hours of drying at room temperature, the temperature was increased to 45° C. and maintained for an additional 24 hours. After that the chamber was filled with dry N2 gas, the rubber stoppers were pushed down and the vials were sealed with aluminum crimp seals.
The samples were assayed immediately after drying and after 30 days of storage at 40° C. After drying the Urokinase, activity was 93% of the initial activity. […]

Question: Which results are given for Urokinase?
Answer: Urokinase activity, % of the initial activity (after 30 days of storage at 40° C.): 90%; Urokinase activity, % of the initial activity (immediately after drying (40 wt % sucrose, maximum 45° C.)): 93%
